Data reported in publication PMC9130146, “Alteration in DNA-binding affinity of Wilms tumor 1 protein due to WT1 genetic variants associated with steroid - resistant nephrotic syndrome in children”.

Key:
Experiment in all cases: MST; 50 mM Na2HPO4.12H2O, 150 mM NaCl, 0.005% Tween; pH not stated; room temperature; 80 nM DNA; protein from 1-4 mM (highest) downward
WT1 ZF2-4 p.Arg463Ter = WT1 ZF2-4 p.Arg463Ter (Homo sapiens (cDNA from A549 cells), UniProt P19544-2 334-372); details: protein: recombinant; tags: no tag stated; label: 5' Cyanine5; single strand
WT1 ZF2-4 p.His450Arg = WT1 ZF2-4 p.His450Arg (Homo sapiens (cDNA from A549 cells), UniProt P19544-2 334-423, H360R); details: protein: recombinant; tags: no tag stated; label: 5' Cyanine5; single strand
[1] = target: WT1 ZF2-4 wild type (-KTS) (Homo sapiens (cDNA from A549 cells), UniProt P19544-2 334-423); details: protein: recombinant; tags: no tag stated; pET22b, reverse primer has a stop codon; label: 5' Cyanine5; single strand
WT1 ZF2-4 p.Arg467Trp = WT1 ZF2-4 p.Arg467Trp (Homo sapiens (cDNA from A549 cells), UniProt P19544-2 334-423, R377W); details: protein: recombinant; tags: no tag stated; label: 5' Cyanine5; single strand
WT1 ZF2-4 p.Gln447Pro = WT1 ZF2-4 p.Gln447Pro (Homo sapiens (cDNA from A549 cells), UniProt P19544-2 334-423, Q357P); details: protein: recombinant; tags: no tag stated; label: 5' Cyanine5; single strand
WT1 ZF2-4 p.Arg439Pro = WT1 ZF2-4 p.Arg439Pro (Homo sapiens (cDNA from A549 cells), UniProt P19544-2 334-423, R349P); details: protein: recombinant; tags: no tag stated; label: 5' Cyanine5; single strand
WT1 ZF2-4 p.Cys433Tyr = WT1 ZF2-4 p.Cys433Tyr (Homo sapiens (cDNA from A549 cells), UniProt P19544-2 334-423, C343Y); details: protein: recombinant; tags: no tag stated; label: 5' Cyanine5; single strand
WT1 ZF2-4 p.His474Arg = WT1 ZF2-4 p.His474Arg (Homo sapiens (cDNA from A549 cells), UniProt P19544-2 334-423, H384R); details: protein: recombinant; tags: no tag stated; label: 5' Cyanine5; single strand
WT1 ZF2-4 p.Asp469Asn = WT1 ZF2-4 p.Asp469Asn (Homo sapiens (cDNA from A549 cells), UniProt P19544-2 334-423, D379N); details: protein: recombinant; tags: no tag stated; label: 5' Cyanine5; single strand
WT1 ZF2-4 p.Asp469Asn, sequence (P19544 other isoform, or with tags, fused parts or gaps D379N | p.D469N p.D469N): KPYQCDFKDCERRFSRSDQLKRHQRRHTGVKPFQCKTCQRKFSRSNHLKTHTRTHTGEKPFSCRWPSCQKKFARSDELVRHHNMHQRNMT

WT1 ZF2-4 p.Gln447Pro, sequence (P19544 other isoform, or with tags, fused parts or gaps Q357P | p.Q447P p.Q447P): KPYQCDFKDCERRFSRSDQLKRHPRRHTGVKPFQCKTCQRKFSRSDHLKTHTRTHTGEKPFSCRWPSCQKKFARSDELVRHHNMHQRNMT
WT1 ZF2-4 wild type (-KTS), sequence (P19544 other isoform, or with tags, fused parts or gaps): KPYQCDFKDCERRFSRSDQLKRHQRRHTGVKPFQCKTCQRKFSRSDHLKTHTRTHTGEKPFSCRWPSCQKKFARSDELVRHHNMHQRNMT
WT1 ZF2-4 p.Cys433Tyr, sequence (P19544 other isoform, or with tags, fused parts or gaps C343Y | p.C433Y p.C433Y): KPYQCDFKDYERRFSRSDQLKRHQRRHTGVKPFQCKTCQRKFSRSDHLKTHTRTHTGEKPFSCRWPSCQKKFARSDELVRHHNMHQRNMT
WT1 ZF2-4 p.Arg439Pro, sequence (P19544 other isoform, or with tags, fused parts or gaps R349P | p.R439P p.R439P): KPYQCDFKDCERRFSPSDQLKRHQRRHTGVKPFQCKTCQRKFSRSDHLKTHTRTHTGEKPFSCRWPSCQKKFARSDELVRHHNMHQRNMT
WT1 ZF2-4 p.Arg467Trp, sequence (P19544 other isoform, or with tags, fused parts or gaps R377W | p.R467W p.R467W): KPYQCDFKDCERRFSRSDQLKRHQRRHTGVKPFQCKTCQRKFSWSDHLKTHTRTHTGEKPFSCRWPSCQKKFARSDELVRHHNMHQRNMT
WT1 ZF2-4 p.Arg463Ter, sequence (P19544 351-389): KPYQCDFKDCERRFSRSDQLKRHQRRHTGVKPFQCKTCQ
WT1 ZF2-4 p.His450Arg, sequence (P19544 other isoform, or with tags, fused parts or gaps H360R | p.H450R p.H450R): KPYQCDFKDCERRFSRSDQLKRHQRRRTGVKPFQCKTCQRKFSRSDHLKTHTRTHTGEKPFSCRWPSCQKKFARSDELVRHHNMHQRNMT
WT1 ZF2-4 p.His474Arg, sequence (P19544 other isoform, or with tags, fused parts or gaps H384R | p.H474R p.H474R): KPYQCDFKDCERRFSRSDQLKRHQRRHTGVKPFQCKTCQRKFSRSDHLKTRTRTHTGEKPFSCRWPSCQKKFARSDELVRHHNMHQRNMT

## GTGGAGGCGGCGGGGGCGGCAGCAACAG (ssDNA) [EGR1 DNA motif, Cy5 oligo]
WT1 ZF2-4 p.Arg463Ter
  Kd: 324 ± 13.3 µM
WT1 ZF2-4 p.His450Arg
  Kd: 878 ± 164 µM
[1]
  Kd: 111 ± 7.4 µM
WT1 ZF2-4 p.Arg467Trp
  Kd: 94.6 ± 9.8 µM
WT1 ZF2-4 p.Gln447Pro
  Kd: 24.9 ± 4.2 µM
WT1 ZF2-4 p.Arg439Pro
  Kd: 319 ± 72.7 µM
WT1 ZF2-4 p.Cys433Tyr
  Kd: 89.4 ± 7 µM
WT1 ZF2-4 p.His474Arg
  Kd: 48.4 ± 6 µM
WT1 ZF2-4 p.Asp469Asn
  Kd: 12.1 ± 1.7 µM
